Reference: PMC2191102

Target: moth cytochrome c, MCC(99K), wild-type peptide peptide on I-Ek (mouse)
Test: C1/2wt: antigen concentration for half-maximal IL-2 with wild-type I-Ek CHO APC

2B4
EC50 of peptide: 25 nM
